Data: patent US20230090247A1, “MOLECULES TARGETING RAS PROTEIN” (AELIN THERAPEUTICS, priority 2020, published 2023)
Blank lines part the entries; values can stand above or below the substance they belong to. Ends that are not written are not given here.

Legend:
mutant G12V KRAS = target: T1, mutant G12V KRAS (Homo sapiens, UniProt P01116, G12V); assay: Cellular co-immunoprecipitation in KRAS G12V expressing RASless MEFs; format: cell-based; conditions: 25 μM biotinylated pept-in, 16 hours
T1 construct: host or cells: RASless mouse embryonic fibroblasts expressing a KRAS G12V transgene
Method: (§1) FIG. 10 illustrates cellular co-immunoprecipitation assays showing target engagement by RAS-targeting molecules (‘pept-ins’) according to certain embodiments of the present invention. Cellular target engagement of biotinylated pept-ins was assessed using co-immunoprecipitation assay. KRAS wild-type or mutant G12V expressing RASless MEFs. […] The biotinylated versions of the G12V-selective pept-ins, however, show preferential binding to the G12V mutant KRAS protein.
(§2) Cellular co-immunoprecipitation assays were performed using either KRAS wild-type or mutant G12V expressing RASless MEFs (see elsewhere) or human NCI-H441 lung adenocarcinoma tumor cells and N-terminally biotinylated pept-ins. Cells were seeded at a density of 300,000 cells in a clear 6-well plate (Cellstar, Greiner). […] Next, cells were lysed with NP-40 lysis buffer (150 mM NaCl, 50 mM Tris HCl pH8, 1% IGEPAL (NP40), 1× Halt phosphatase/protease inhibitors (Thermo), 1 U/μl Universal Nuclease (Pierce)) and biotinylated pept-ins were captured with streptavidin-coated magnetic beads (Pierce) during 1 hours at room temperature. Beads were washed with NP40 lysis buffer at least 3 times, after which bound proteins were boiled off in 1×SDS loading dye (Bio-Rad) in NP40 lysis buffer. […]

KRAS G12D mutant = target: T2, KRAS G12D mutant (Homo sapiens, UniProt P01116, G12D); assay: In vitro translation assay with streptavidin pull-down, KRAS G12D; format: binding; conditions: 10 μM biotinylated pept-in, Western blot
T2 construct: made in house; host or cells: cell-free: PURExpress In Vitro Protein Synthesis Kit (New England Biolabs), linear T7 DNA template
From the text: (§3) FIG. 5 illustrates in vitro translation assay showing target selectivity of RAS-targeting molecules (‘pept-ins’) according to certain embodiments of the present invention. In vitro translation assay producing either wild-type or different mutant KRAS in the presence of biotinylated RAS-targeting pept-ins. Streptavidin pull-down was used to capture the biotinylated pept-ins from the translation reaction and pulled-down fraction was probed for KRAS using Western blot. The biotinylated version of pept-in 04-004-N001, i.e. 04-004-N011, which harbours an APR window sequence derived from a wild-type APR, would be predicted to target all RAS proteins independently from their mutation status. […]
(§4) In vitro translation assays were performed using the PURExpress® In Vitro Protein Synthesis Kit (New England Biolabs) according to the manufacturer's instructions. […] Proteins were resolved using Any kD 15-well Mini-PROTEAN gels (Bio-Rad) during SDS-PAGE and probed for KRAS after Western blotting using a mouse monoclonal KRAS-specific antibody (SC-30, Santa Cruz Biotechnology), which was detected with an HRP-coupled anti-mouse secondary antibody using chemiluminescence on a Bio-Rad Chemidoc MP imaging instrument. […]

KRAS wild-type = target: T3, KRAS wild-type (Homo sapiens, UniProt P01116); assay: In vitro translation assay with streptavidin pull-down, KRAS wild-type; format: binding; conditions: 10 μM biotinylated pept-in, Western blot
T3 construct: made in house; host or cells: cell-free: PURExpress In Vitro Protein Synthesis Kit (New England Biolabs), linear T7 DNA template
From the text: as §3, §4

wild-type KRAS = target: T4, wild-type KRAS (Homo sapiens, UniProt P01116); assay: Cellular co-immunoprecipitation in KRAS wild-type expressing RASless MEFs; format: cell-based; conditions: 25 μM biotinylated pept-in, 16 hours
T4 construct: host or cells: RASless mouse embryonic fibroblasts expressing a KRAS transgene
Method: as §1, §2

KRAS G13D mutant = target: T5, KRAS G13D mutant (Homo sapiens, UniProt P01116, G13D); assay: In vitro translation assay with streptavidin pull-down, KRAS G13D; format: binding; conditions: 10 μM biotinylated pept-in, Western blot
T5 construct: made in house; host or cells: cell-free: PURExpress In Vitro Protein Synthesis Kit (New England Biolabs), linear T7 DNA template
From the text: as §3, §4

G12V mutant KRAS = target: T6, G12V mutant KRAS (Homo sapiens, UniProt P01116, G12V); assay: In vitro translation assay with streptavidin pull-down, KRAS G12V; format: binding; conditions: 10 μM biotinylated pept-in, Western blot
T6 construct: made in house; host or cells: cell-free: PURExpress In Vitro Protein Synthesis Kit (New England Biolabs), linear T7 DNA template
From the text: FIG. 5 illustrates in vitro translation assay showing target selectivity of RAS-targeting molecules (‘pept-ins’) according to certain embodiments of the present invention. In vitro translation assay producing either wild-type or different mutant KRAS in the presence of biotinylated RAS-targeting pept-ins. Streptavidin pull-down was used to capture the biotinylated pept-ins from the translation reaction and pulled-down fraction was probed for KRAS using Western blot. The biotinylated version of pept-in 04-004-N001, i.e. 04-004-N011, which harbours an APR window sequence derived from a wild-type APR, would be predicted to target all RAS proteins independently from their mutation status. […] Using the biotinylated versions of the biologically active pept-ins harbouring an APR window containing the G12V mutant site (04-006-N007, 04-015-N026 and 04-033-N003), however, pull-down was only observed for the G12V mutant KRAS and, in the case of 04-015-N026, for G12C mutant KRAS.
In vitro translation assays were performed using the PURExpress® In Vitro Protein Synthesis Kit (New England Biolabs) according to the manufacturer's instructions. Briefly, linear DNA fragments containing T7 promotor and terminator sequences flanking the KRAS coding sequence were generated using PCR and purified using the MinElute PCR Purification Kit (Qiagen). 250 ng of linear DNA was subsequently used for the in vitro translation reaction, which was performed for 2 hours at 37° C. with shaking (1000 rpm). Indicated biotinylated pept-ins were mixed in the translation reactions from a 5 mM stock solution in 6M Urea to a final concentration of 10 μM. Upon completion of the translation reaction, biotinylated pept-ins were captured from the reaction mix using Streptavidin coated beads (Pierce) during 90 min at room temperature. Beads were next washed with TBS containing 0.1% Tween 20 and bound proteins were finally boiled off in 1×SDS loading dye (Bio-Rad) in TBS buffer. Proteins were resolved using Any kD 15-well Mini-PROTEAN gels (Bio-Rad) during SDS-PAGE and probed for KRAS after Western blotting using a mouse monoclonal KRAS-specific antibody (SC-30, Santa Cruz Biotechnology), which was detected with an HRP-coupled anti-mouse secondary antibody using chemiluminescence on a Bio-Rad Chemidoc MP imaging instrument.
To mimic this in vitro, we devised an in vitro translation setup producing either wild-type or mutant (G12V, G12C, G12D or G13D) KRAS in the presence of biotinylated RAS-targeting pept-ins. This allowed us to perform a streptavidin pull-down to capture the biotinylated pept-ins from the translation reaction and perform SDS-PAGE and Western blotting to probe the pulled-down fraction for the presence of KRAS. […]

G12C mutant KRAS = target: T7, G12C mutant KRAS (Homo sapiens, UniProt P01116, G12C); assay: In vitro translation assay with streptavidin pull-down, KRAS G12C; format: binding; conditions: 10 μM biotinylated pept-in, Western blot
T7 construct: made in house; host or cells: cell-free: PURExpress In Vitro Protein Synthesis Kit (New England Biolabs), linear T7 DNA template
From the text: as §3, §4

[1] = tested on: HeLa cells overexpressing mCherry-tagged KRAS G12V; assay: Cellular fluorescent imaging in HeLa cells overexpressing mCherry-tagged KRAS G12V; format: cell-based, human; conditions: 75 min after treatment with the FITC-labeled pept-in
Method: FIG. 7 illustrates cellular co-localization between mCherry-labeled KRAS and FITC-labeled RAS-targeting molecules (‘pept-ins’) according to certain embodiments of the present invention.
Fluorescent cellular imaging was performed using HeLa cells that were transduced with lentiviral particles carrying a construct expressing KRAS G12V labeled N-terminally with mCherry. Cells were seeded in a black μClear® Cellstar® F-bottom 96-well plates (Greiner) in […] full growth medium. […] Next, cells were fixed, washed and counterstained with the nuclear dye NucBlue™ (containing Hoechst 33342). Images were captured on a Leica confocal microscope.
To complement the co-immunoprecipitation approach, we also used a cellular imaging approach to show target engagement. To this end, we generated a HeLa cell line overexpressing mCherry-tagged KRAS G12V and FITC-labelled versions of the RAS-targeting pept-ins.

[2] = tested on: SW620 xenograft of human KRAS G12V mutant colorectal cancer; assay: In vivo SW620 xenograft model; parameters: species or system Female NCr nu/nu mice
Method: FIG. 12 illustrates that RAS-targeting pept-ins reduce tumor growth in a xenograft model of KRAS G12V mutant cancer. […] Pept-ins were dosed 3 times per week by intratumoral injection at either 20 or 200 μg once the tumors reached 100-150 mm^3. Model response was monitored by a positive control group receiving Irinotecan at 100 mg/kg, once per week for 3 weeks. Group sizes were N=6 for the non-treated group, N=5 for the vehicle groups and N=8 for the pept-in and positive control groups. Graphs show box plots of tumor volumes at day 22 after treatment started.
Female NCr nu/nu mice (8 to 12 weeks) were inoculated with 1×10^6 SW620 tumor cells in 50% Matrigel subcutaneously in the hind flank. The cell Injection Volume was 0.1 mL/mouse. When tumors reached an average size of 100-150 mm^3 a pair match was performed, and treatment started. Group sizes were N=6 for the non-treated group, N=5 for the vehicle groups and N=8 for the pept-in and positive control groups. Tumor growth was monitored by caliper measurement twice per week. Model response was monitored by Irinotecan dosed once per week at 100 mg/kg intraperitoneally for 3 weeks.
To assess whether the RAS-targeting pept-ins are able to attenuate growth of KRAS G12V-driven tumors in vivo, a subcutaneous xenograft model of human KRAS G12V colorectal cancer (SW620) was used. Once the tumors reached 100-150 mm^3 in size, pept-ins were administered directly into the tumor mass by intratumoral injection three times per week during two weeks at two different doses (20 μg and 200 μg).

[3] = tested on: RASless MEFs expressing KRAS WT; assay: RASless MEF spheroid efficacy, KRAS WT expressing MEFs; format: cell-based, mouse; conditions: spheroids, 5 days of exposure
Method: (§5) FIG. 9 illustrates mutant-selective cellular efficacy using the RASless MEF panel. Graph showing mean±SD as well as individual assay IC50s from at least three independent experiments assessing the efficacy of the indicated RAS-target pept-ins on a panel of RASless MEFs, expressing either wild-type (WT), mutant G12V or G12C KRAS, or a V600E mutant BRAF in absence of endogenous K-, H-, and NRAS.
(§6) For the single-dose viability screen on spheroid cultures, 1000 cells were seeded per well in black Ultra-Low Attachment (ULA) round-bottom 96-well plates (Corning) in […] full growth medium. […] Technical duplicates were included for all experimental pept-in conditions 5 days after treatment viability was assessed using the CellTiter Glo 3D reagent (Promega) according to the manufacturer's instructions, with the following adaptation: 80 μL of reagent was added per well. Readout was performed on a Clariostar plate reader (BMG). […]
(§7) RAS mutant-selectivity on cellular efficacy was assessed using the isogenic RASless mouse embryonic fibroblast (MEF) panel. […] The panel assessed included the common clinical KRAS variants expressed as transgene (WT, G12V and G12C) and an additional cell line dependent on the expression of BRAF V600E for proliferation.
(§8) Efficacy of RAS-targeting pept-ins on MEFs growing as spheroids was assessed after 5 days of exposure. […]

[4] = tested on: RASless MEFs expressing KRAS G12V; assay: RASless MEF spheroid efficacy, KRAS G12V expressing MEFs; format: cell-based, mouse; conditions: spheroids, 5 days of exposure, compared to KRAS WT and G12C MEFs
Method: as §5, §6, §7, §8

[5] = tested on: RASless MEFs expressing KRAS G12C; assay: RASless MEF spheroid efficacy, KRAS G12C expressing MEFs; format: cell-based, mouse; conditions: spheroids, 5 days of exposure
Method: as §5, §6, §7, §8

KRAS G12V = KRAS G12V (human, UniProt P01116-2 1-188, limits assumed); assay: cell-based or functional assay

Substance: 04-015-N032: FITC-labelled version of pept-in 04-015-N001 (KVVVGAVGKGSKVVVGAVGK; not fully specified (C-terminus); also: FITC-labelled, site not given here)
association with mCherry-labelled KRAS (inclusion-like perinuclear structures) [1]: associates with mCherry-labelled KRAS

Substance: 04-033-N003: biotinylated version of a biologically active pept-in harbouring an APR window containing the G12V mutant site (KVVVGAVGVGKGSKVVVGAVGVGK; also: biotinylated, site not given here)
streptavidin pull-down of KRAS G12V (G12V mutant KRAS): notable pull-down

Substance: Ac-KLSVFAIKGSKLSVFAIK-NH2 [04-004-N001]
average tumor volume at day 22 after treatment started ([2]; 20 μg intratumoral injection three times per week): only significant for the 200 μg dosing group | average tumor volume at day 22 after treatment started ([2]; 200 μg intratumoral injection three times per week): only significant for the 200 μg dosing group | efficacy on MEFs expressing KRAS WT [3]: responded similarly as the BRAF V600E expressing RASless MEFs | efficacy on MEFs expressing KRAS G12V [4]: notable increased efficacy | efficacy on MEFs expressing KRAS G12C [5]: responded similarly as the BRAF V600E expressing RASless MEFs

Substance: SAH-SOS-1A (peptide)
IC50 on viability of adherent NCI-H441 cells after 4 days exposure (KRAS G12V): 15 µM

Second part, led by results:

binding (pull-down) to KRAS G12D (KRAS G12D mutant): less efficient | streptavidin pull-down of KRAS wild-type (KRAS wild-type): efficient pull-down | binding (pull-down) to KRAS G13D (KRAS G13D mutant): less efficient | streptavidin pull-down of KRAS G12V (G12V mutant KRAS): efficient pull-down | streptavidin pull-down of KRAS G12C (G12C mutant KRAS): efficient pull-down
Substance: 04-004-N011: biotinylated version of pept-in 04-004-N001 (KLSVFAIKGSKLSVFAIK; also: biotinylated, site not given here)
co-precipitation of mutant G12V KRAS (mutant G12V KRAS): precipitate both wild-type and mutant G12V KRAS well | co-precipitation of wild-type KRAS (wild-type KRAS): precipitate both wild-type and mutant G12V KRAS well

streptavidin pull-down of KRAS G12V (G12V mutant KRAS): notable pull-down
Substance: 04-006-N007: biotinylated version of a biologically active pept-in harbouring an APR window containing the G12V mutant site (KVVVGAVKGSKVVVGAVK; also: biotinylated, site not given here)

streptavidin pull-down of KRAS G12V (G12V mutant KRAS): notable pull-down | streptavidin pull-down of KRAS G12C (G12C mutant KRAS): notable pull-down
Substance: 04-015-N026: biotinylated version of a biologically active pept-in harbouring an APR window containing the G12V mutant site (KVVVGAVGKGSKVVVGAVGK; also: biotinylated, site not given here)
